Source: paper PMC8637272

System: enolase (ENO) (Mycoplasma gallisepticum S6)
Assay: EMSA
Conditions: EMSA: 20 mM carbonate buffer pH 9.8, 6% glycerol, 2.5 pmol FAM-DNA, 10 min 37 C, 6% acrylamide gel at 10 C. AFM: 20 mM Tris-HCl pH 7.5 (Methods; Fig 6 legend …)

Work on Peno yielded a Kd (Hill n 3.1 +/- 0.6) of 1 µM.

Pgapd was tested, and the Kd (Hill n 2.7 +/- 0.8) was 1.1 µM.
